These are literature values, as cited in article PMC10119362.

The target in the data set is Amyloid-beta monomer (Homo sapiens) (UniProt P05067).

For the substance Gantenerumab, the dissociation constant Kd (as a rule, the concentration at which binding is half-saturated) was 23 nM.
